Measurements as given in US7737158B2, “Processes for regulating blood glucose in a mammal” (Washington University, priority 2005, dated 2010).
Entries after “also recorded” stand apart in the source; their conditions may differ.

Columns and labels:
wild type males = experiment: Blood glucose after intraperitoneal injection of recombinant Nampt in fed wild type mice; assay type: in vivo, mouse; details: 1000 pmoles intraperitoneally, fed wild type males, 0, 30, 60 min
Protocol: If the NAD biosynthetic activity of Nampt is responsible for the phenotypes observed in Nampt^+/− mice, the administration of NMN, a product of the Nampt enzymatic reaction, should be able to correct their problems. To test this possibility, the same Nampt^+/− mice that were used for IPGTTs were injected with NMN at a dose of 500 mg/kg body weight intraperitoneally ˜14 hrs prior to IPGTTs. As a control, PBS was injected to the mice ˜14 hrs before conducting previous IPGTTs. […] Because these findings completely contradict the conclusion by Fukuhara et al., the reproducibility of the insulin-mimetic activity of this protein was examined. Here, 1000 pmoles of the bacterially produced recombinant protein of mouse His-tagged Nampt were injected intraperitoneally to fed wild type males. Blood glucose levels were monitored with a glucometer at 0, 30, and 60 min time points after injection.

mouse Nampt [1] = target: T1, mouse Nampt (Mus musculus, UniProt Q99KQ4); experiment: Enzyme-coupled fluorometric assay of immunoprecipitated Nampt-FLAG and recombinant Nampt; assay type: biochemical; set-up: expressed in transfected cells; host or cells: mouse NIH3T3 fibroblasts and mouse HIB-1B preadipocytes (differentiated), stably transfected with pCXN2-Nampt-FLAG; cell extracts or culture supernatant, anti-FLAG immunoprecipitates; details: NMN synthesis, 55 min at 37° C., pH8.5; Nampt amount quantified by Western blotting
Protocol: For immunoprecipitation of intracellular Nampt, whole cell extracts were prepared with ice-cold immunoprecipitation (IP) buffer (phosphate buffer saline [pH 7.4], 0.5% NP-40, 1 mM EDTA,1 mM NaF, 10 μM Trichostatin A, 10 mM nicotinamide, 0.5 mM DTT, protease inhibitor cocktail (Roche)) and mixed with agarose beads conjugated with the mouse monoclonal M2 anti-FLAG antibody (F2426, Sigma) for 3-4 hours at 4° C. For immunoprecipitation of extracellular Nampt, HIB-1B culture supernatants were collected after incubating differentiated HIB-1B cells overnight with DMEM without fetal bovine serum but supplemented with 1 μg/ml insulin and 1 nM triodothyronine, filtered through a 0.22-μm PES membrane, concentrated with Amicon Ultra-15 columns (Millipore, MA), and mixed with anti-FLAG beads for 3-4 hours at 4° C. Immunoprecipitates were washed twice with the IP buffer and twice with PBS.
Immunoprecipitates on anti-FLAG beads were incubated in enzymatic reaction buffer (50 mM Tris-HCl (pH8.5), 100 mM NaCl, 0.25 mM Nicotinamide, 10 mM MgSO4, 1.5% Ethanol, 0.5 mM PRPP, 2.0 mM ATP) for 55 min at 37° C. After this reaction, mouse recombinant nicotinamide mononucleotide adenylyltransferase and yeast alcohol dehydrogenase (Sigma) were added at 10 μg/ml as the final concentration for each, and the mixture was incubated for 5 min at 37° C. Supernatants were then collected by spinning down anti-FLAG beads, and autofluorescence of NADH was measured in a Perkin Elmer LS 50B fluorometer (excitation: 340 nm; emission: 460 nm). Immunoprecipitates bound on anti-FLAG beads were extracted with Laemmli's sample buffer, boiled for 5 minutes, and analyzed by Western blotting with anti-Nampt antibodies. The amounts of Nampt used for enzymatic reactions were quantitated compared to the standards of mouse recombinant Nampt.
The immunoprecipitates from the HIB-1B culture supernatants were subjected to enzyme-coupled fluorometric assays (see Revollo et al., J. Biol. Chem., (2004)279, 50754-50763) to compare enzymatic activity of the intracellular and extracellular forms of Nampt. […] The Nampt enzymatic activity of the bacterially produced recombinant Nampt and the intracellular Nampt-FLAG® immunoprecipitated from HIB-1B and NIH3T3 cellular extracts were also measured and their kcat values calculated (see FIG. 16E). […] It is believed that a post-translational modification may be responsible for the altered enzymatic activity of extracellular Nampt produced by brown adipocytes. […] Despite the extensive mass spectrometric analysis of extracellular Nampt, the precise nature of the modification is currently unknown. Taken together, these findings provide strong evidence that Nampt functions as an NAD biosynthetic enzyme both intra- and extracellularly.

mouse Nampt [2] = target: T1, mouse Nampt; experiment: HPLC detection of Nampt reaction products; assay type: biochemical; set-up: expressed in transfected cells; cell extracts or culture supernatant, anti-FLAG immunoprecipitates; details: 37° C.
Protocol: High performance liquid chromatography was used to detect Nampt reaction products. HPLC was performed with Waters 515 pumps and a 2487 detector (Waters, Mass.) with a Supelco LC-18-T column (15 cm×4.6 cm; Supelco, Pa.). The Nampt reaction was conducted at 37° C. for 15 min in 500 μl of reaction buffer (50 mM Tris-HCl [pH 7.5], 10 mM MgCl2, 50 mM nicotinamide, 0.2 mM PRPP) with 50 μg of the recombinant Nampt protein. The reaction was terminated by adding 125 μl of 1 M HClO4. Protein was then precipitated at 18,000 g, and 500 μl of the supernatant was neutralized with 40 μl of 3 M K2CO3. After centrifugation, 100 μl of sample was mixed with 400 μl of Buffer A (50 mM K2PO4/KHPO4, pH 7.0) and loaded into the HPLC system. The products from Nampt reaction were monitored by absorbance at 261 nm.

mouse Nampt [3] = target: T1, mouse Nampt; experiment: Enzyme-coupled fluorometric assay, kinetic characterization of recombinant Nampt; assay type: biochemical; set-up: expressed in transfected cells; cell extracts or culture supernatant, anti-FLAG immunoprecipitates
Protocol: Enzymatic activities of recombinant Nampt and Nmnat proteins were measured by an enzyme-coupled fluorometric assay (see, e.g., FIG. 4B). In this enzyme-coupled reaction, NAD is converted to NADH by alcohol dehydrogenase, and the fluorescence of NADH is detected in a fluorometer. To establish this assay system, optimal reaction conditions for Nmnat were initially examined by varying ATP and Mg^2+ concentrations and pH of the reaction buffer. The resultant reaction buffer for Nmnat contained 50 mM HEPES [pH 7.4], 0.02% BSA, 12 mM MgCl2, 2 mM ATP, 1.5% ethanol, and 30 μg/ml alcohol dehydrogenase to convert NAD to NADH. To determine the kinetic parameters for Nmnat, 30 ng of purified His-tagged Nmnat and varying concentrations of NMN were added to 1 ml of the reaction buffer. The reactions were run at 37° C. and quenched at six time points by the addition of 250 μl of 0.5 M EDTA. The production of NADH was measured by excitation at 340 nm and emission at 460 nm in a fluorometer. For kinetic characterization of Nampt, 500 ng of His-tagged Nampt and varying concentrations of nicotinamide were reacted at 37° C. in 100 μl of a buffer containing 50 mM Tris-HCl [pH 7.5], 0.02% BSA, 12 mM MgCl2, 2.5 mM ATP, 10 μg/ml His-tagged Nmnat, 0.4 mM phosphoribosyl pyrophosphate (PRPP), 1.5% ethanol, and 30 μg/ml alcohol dehydrogenase. NADH production was measured continuously in a fluorometer.
By using this enzyme-coupled fluorometric assay, kinetic parameters of purified recombinant mouse Nampt and Nmnat for nicotinamide and NMN, respectively, were determined (see, e.g., Table 1). The Lineweaver-Burk plots for these two enzymes are shown, for example, in FIGS. 11A and 11B. […] The Km and Vmax of mouse Nmnat are consistent with previously reported values for human NMNAT-1 (Emanuelli et al., J. Biol. Chem. (2001) 276, 406-412).

[4] = purified His-tagged recombinant mouse Nampt, substrate nicotinamide

B1: Nampt: Bacterially produced, His-tagged recombinant mouse nicotinamide phosphoribosyltransferase (protein)
chain: MNAAAEAEFNILLATDSYKVTHYKQYPPNTSKVYSYFECREKKTENSKVRKVKYEETVFYGLQYILNKYLKGKVVTKEKIQEAKEVYREHFQDDVFNERGWNYILEKYDGHLPIEVKAVPEGSVIPRGNVLFTVENTDPECYWLTNWIETILVQSWYPITVATNSREQKKILAKYLLETSGNLDGLEYKLHDFGYRGVSSQETAGIGASAHLVNFKGTDTVAGIALIKKYYGTKDPVPGYSVPAAEHSTITAWGKDHEKDAFEHIVTQFSSVPVSVVSDSYDIYNACEKIWGEDLRHLIVSRSTEAPLIIRPDSGNPLDTVLKVLDILGKKFPVTENSKGYKLLPPYLRVIQGDGVDINTLQEIVEGMKQKKWSIENVSFGSGGALLQKLTRDLLNCSFKCSYVVTNGLGVNVFKDPVADPNKRSKKGRLSLHRTPAGNFVTLEEGKGDLEEYGHDLLHTVFKNGKVTKSYSFDEVRKNAQLNIEQDVAPH
Question: What does the source list for B1?
Answer: blood glucose levels (wild type males; listed as recombinant Nampt): no significant effect; blood glucose levels (wild type males; listed as recombinant Nampt protein): no decrease; kcat (mouse Nampt [1]): 0.035 s⁻¹; synthesis of nicotinamide mononucleotide (NMN) from nicotinamide and PRPP (mouse Nampt [2]): robust synthesis; synthesis of nicotinamide mononucleotide (NMN) from nicotinamide and PRPP (mouse Nampt [2]; listed as mouse Nampt): produced nicotinamide mononucleotide (NMN); synthesis of nicotinic acid mononucleotide (NaMN) from nicotinic acid and PRPP (mouse Nampt [2]; substrate specificity): failed to catalyze; also recorded: did not synthesize; catalytic efficiency of Nampt, fold less than that of Nmnat (mouse Nampt [3]; Nampt (nicotinamide) versus Nmnat (NMN)): ~46 fold; Vmax (mouse Nampt [3]; [4]): 0.021 µmol/min/mg; kcat (mouse Nampt [3]; [4]): 0.020 s⁻¹; Km (mouse Nampt [3]; purified His-tagged recombinant mouse Nampt, substrate nicotinamide, 37° C.): 0.92 µM
